Data from the supplement of paper PMC9732359.
± gives the uncertainty stated by the source.

Assay: protein stability index of a GFP-peptide fusion (yeast GPS) (PSI 1-4); higher = more stable; sorted into four equal gates, so the index is relative within each strain
Summary of the method: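 Yeast carrying a pooled library were grown to mid-log phase in leucine-free medium. Each library plasmid expresses Cherry and has a tiled 17-residue yeast protein peptide fused downstream of GFP. Cells were sorted into four equal gates by GFP/Cherry ratio, and plasmids from each gate were PCR-amplified, Illumina-sequenced and assigned to strains by barcode. Summing, across gates, the read frequency times the gate number gave each peptide's protein stability index.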

Row | Sequence | protein stability index (doa10∆) | protein stability index (pdr5∆) | protein stability index (san1∆) | protein stability index (ubr1∆)
1 | ILYEIRALYTPFLLMEL [YDL116W/NUP84] | 2.66 ± 0.081 | 2.93 ± 0.064 | 2.79 ± 0.066 | 3.02 ± 0.062
2 | IIKENVKVARLAGKYIP [FAS1] | 1.73 ± 0.23 | 1.6 ± 0.27 | – | 1.82 ± 0.1
3 | QSSSSTRSHEYGRKSFR [REC8] | 2.83 ± 0.11 | 2.92 ± 0.099 | 2.84 ± 0.12 | 3.2 ± 0.13
4 | DPLLSLYNFLHKYVLTL [RGR1] | 2.5 ± 0.043 | 2.12 ± 0.07 | 2.49 ± 0.05 | 2.12 ± 0.046
5 | GNSESKVEKGVNIEPFN [LIN1] | 3.7 ± 0.13 | 3.67 ± 0.17 | 3.46 ± 0.08 | 3.13 ± 0.079
6 | LPLPPSVEWMKVSPSMC [SIN4] | 1.75 ± 0.055 | 1.71 ± 0.05 | 1.69 ± 0.09 | 1.55 ± 0.063
7 | SLIRNNLHAEGWPKLQL [ECM29] | 1.15 ± 0.056 | 1.25 ± 0.081 | 1.32 ± 0.17 | 1.04 ± 0.085
8 | IDEDKLYPSFKPIYKDT [SSN2] | 2.99 ± 0.095 | 3.04 ± 0.11 | 3 ± 0.053 | 3.17 ± 0.092
9 | AEENLKKRIRLPSEERI [YIL149C/MLP2] | 2.89 ± 0.081 | 2.48 ± 0.066 | 2.61 ± 0.08 | 3.08 ± 0.044
10 | SVMPPNEVYSAYVVNDT [DLS1] | 2.77 ± 0.087 | 2.95 ± 0.13 | 1.89 ± 0.28 | 3.04 ± 0.082
11 | KTDEVIILGTNLYDGAE [BRR2] | 2.98 ± 0.068 | 3.12 ± 0.055 | 3.06 ± 0.042 | 2.9 ± 0.043
12 | WHIEETGEWFSSYEEFL [ITC1] | 2.31 ± 0.072 | 2.63 ± 0.077 | 2.59 ± 0.066 | 2.53 ± 0.063
13 | LYKLNDKIAVAVAGLTA [PRE9] | 2.29 ± 0.056 | 2.14 ± 0.052 | 2.18 ± 0.095 | 2.31 ± 0.043
14 | LIIIAANTPVLRKSELE [RPL30] | 2.2 ± 0.11 | 2.68 ± 0.14 | 2.31 ± 0.094 | 2.77 ± 0.13
15 | CTSLMDIIVAIKIFELK [IRR1] | 2.1 ± 0.2 | 1.41 ± 0.16 | 2.13 ± 0.16 | 1.36 ± 0.072
16 | SKSAFSFGTANTNGTNA [YOR098C/NUP1] | 3 ± 0.088 | 3.08 ± 0.088 | 2.77 ± 0.14 | 2.86 ± 0.067
17 | INDIRDDDIEKQEQEEK [YCG1] | 2.96 ± 0.082 | 2.79 ± 0.07 | 2.94 ± 0.055 | 3.12 ± 0.055
18 | NGEEIVGFWKDDGDDED [MTR3] | 2.52 ± 0.11 | 2.66 ± 0.074 | 2.89 ± 0.091 | 3.45 ± 0.087
19 | NGDLTVSLCAKNMGLVP [SSN2] | 2.22 ± 0.081 | 2.23 ± 0.079 | 2.13 ± 0.091 | 2.17 ± 0.087
20 | ARSGLRIGRIEDVTPVP [RPS14A] | 2.69 ± 0.11 | 2.91 ± 0.12 | 2.92 ± 0.097 | 2.85 ± 0.072
21 | PEMIKRSLLLSRVRADD [RRP43] | 2.87 ± 0.2 | 3.63 ± 0.17 | – | 2.92 ± 0.16
22 | LQEKEQLYFKKKVNYKV [ISW2] | 2.96 ± 0.15 | 3.23 ± 0.15 | 3.26 ± 0.23 | 3.48 ± 0.12
23 | DEVITEGQADIDMESDV [POP7] | 3.18 ± 0.068 | 3.17 ± 0.058 | 3.33 ± 0.057 | 3.22 ± 0.048
24 | DHSWFLLIGCKLDQDDE [CSI1] | 1.54 ± 0.11 | 1.95 ± 0.096 | 3.03 ± 0.12 | 2.34 ± 0.064
25 | YSPTSPSYSPTSPGYSP [RPO21] | 2.8 ± 0.044 | 2.94 ± 0.037 | 2.95 ± 0.039 | 2.95 ± 0.034
26 | NYIYAGYENGMLAQWDL [RPN14] | 2.92 ± 0.13 | 3.07 ± 0.14 | 3.06 ± 0.1 | 3.14 ± 0.078

Row | Sequence | protein stability index (doa10∆) | protein stability index (pdr5∆) | protein stability index (san1∆) | protein stability index (ubr1∆)
27 | VVFTRLVQRCWQWGNDR [CSN12] | 1.42 ± 0.092 | 1.4 ± 0.08 | 1.58 ± 0.14 | 1.52 ± 0.058
28 | SLDNKTLDDLVTKWTNQ [YJL041W/NSP1] | 3.08 ± 0.056 | 3.07 ± 0.069 | 3.05 ± 0.062 | 3.17 ± 0.043
29 | NNDQKRQQAYKTAQTLD [YJL041W/NSP1] | 3.14 ± 0.071 | 3.17 ± 0.063 | 3.33 ± 0.053 | 3.23 ± 0.047
30 | QKNDTAAFKDIAKRQFK [RRP40] | 2.95 ± 0.093 | 3.33 ± 0.12 | 2.76 ± 0.068 | 3.35 ± 0.058
31 | LGFEVKDQALIGTINSI [SIR2] | 2.12 ± 0.051 | 2.48 ± 0.062 | 2.27 ± 0.054 | 2.35 ± 0.073
32 | IAFASNYGIVELDPECQ [RRP43] | 2.34 ± 0.083 | 2.68 ± 0.055 | 2.54 ± 0.059 | 2.53 ± 0.08
33 | KTAKEVAGAIRAGIIIA [RPS2] | 2.49 ± 0.14 | 3.16 ± 0.17 | 2.69 ± 0.24 | 3.07 ± 0.1
34 | EFDEQYGTRPLVLPPVV [SNF2] | 3.08 ± 0.071 | 2.69 ± 0.063 | 2.86 ± 0.061 | 2.53 ± 0.046
35 | PNVDLVTALEVLSLGRP [RGR1] | 1.95 ± 0.11 | 2.1 ± 0.063 | 2.47 ± 0.1 | 2.21 ± 0.058
36 | VDINRLKKGEVSLGTSI [PRE3] | 2.21 ± 0.098 | 1.55 ± 0.063 | 2.11 ± 0.081 | 1.33 ± 0.06
37 | RYKPKSHLWEIDIPLDE [RPC37] | 2.81 ± 0.23 | – | 3.03 ± 0.22 | –
38 | LKLCVQELEKRMPMDFK [PRE1] | 3.15 ± 0.19 | 3.34 ± 0.099 | 3.18 ± 0.054 | 3.37 ± 0.085
39 | VKDELMFSPLVDSGSND [RPO21] | 3.11 ± 0.065 | 3.17 ± 0.053 | 3.22 ± 0.047 | 3.21 ± 0.048
40 | ILTDLVNYRHFKAMEDV [ITC1] | 2.94 ± 0.14 | 2.98 ± 0.11 | 3.28 ± 0.068 | 3.39 ± 0.063
41 | HIILDTISECNLYDDVK [MED1] | 2.49 ± 0.073 | 3.18 ± 0.087 | 3.19 ± 0.067 | 3 ± 0.11
42 | PDAKIQVRRDIPSAAFN [YMR129W/POM152] | 2.17 ± 0.061 | 1.89 ± 0.098 | 1.63 ± 0.11 | 3.24 ± 0.088
43 | YNTRKNAVTAAAANNNI [GAL11] | 2.19 ± 0.046 | 2.52 ± 0.044 | 2.67 ± 0.05 | 2.46 ± 0.029
44 | VPRAALEERFDPKSPTK [YMR129W/POM152] | 3.15 ± 0.062 | 3.09 ± 0.064 | 3.01 ± 0.043 | 3.1 ± 0.047
45 | PLVYRHELITNIGETAG [RPB9] | 2.78 ± 0.046 | 2.88 ± 0.035 | 3.04 ± 0.042 | 3.02 ± 0.036
46 | RVRTDDSVLLNRGNKKR [YML031W/NDC1] | 3.29 ± 0.13 | 3.4 ± 0.16 | 3.08 ± 0.058 | 3.3 ± 0.097
47 | KNPKFSNAFYSVLRDTL [SMC4] | 2.1 ± 0.084 | 2.34 ± 0.11 | 2.13 ± 0.093 | 2.13 ± 0.11
48 | SHHLKADTIDHDELIDS [YGL172W/NUP49] | 3.03 ± 0.063 | 3.25 ± 0.046 | 3.08 ± 0.042 | 3.08 ± 0.038
49 | GVDAMSVDDLKKLNKNK [RPL1A] | 3.33 ± 0.078 | 3.14 ± 0.12 | 3.25 ± 0.058 | 3.73 ± 0.11
50 | GNNKDLKNTMQYLTNFS [RPB4] | 3.16 ± 0.08 | 3.02 ± 0.072 | 3.02 ± 0.075 | 3.13 ± 0.061
51 | SLHPLFEQFEKFYEEKL [RPN9] | 2.67 ± 0.24 | 2.9 ± 0.16 | – | –
52 | QYYRGLPLYEKNTLLER [SWP82] | 3.13 ± 0.12 | 3.34 ± 0.11 | 3.13 ± 0.072 | 3.13 ± 0.049
